Tests used:
[1] = molecular target: cMet-Fc (HGFR ectodomain fused to human IgG1 Fc) (human) (UniProt P08581); assay: competition filter binding; details: vs 5'-32P-trCLN3; ~50 nM cMet; four 5'-terminal 5-(1-dodecynyl)-dU (C12 lipid; printed as LLLL, written as UUUU); 1x PBS pH 7.4, 2 mM MgCl2, 0.1 mg/mL E. coli tRNA, 0.25 mg/mL BSA, 37 C, 30 min; ~25 fmol 32P-trCLN3, ~50 nM cMet, 25 uL, nitrocellulose filter
[2] = molecular target: cMet-Fc (HGFR ectodomain fused to human IgG1 Fc) (human, UniProt P08581 25-932); assay: competition filter binding; vs 5'-32P-trCLN3; ~50 nM cMet; 1x PBS pH 7.4, 2 mM MgCl2, 0.1 mg/mL E. coli tRNA, 0.25 mg/mL BSA, 37 C, 30 min; ~25 fmol 32P-trCLN3, ~50 nM cMet, 25 uL, nitrocellulose filter; details: protein: commercial; two predicted intramolecular G-quadruplexes
Sequence of cMet-Fc (HGFR ectodomain fused to human IgG1 Fc) (P08581 25-932): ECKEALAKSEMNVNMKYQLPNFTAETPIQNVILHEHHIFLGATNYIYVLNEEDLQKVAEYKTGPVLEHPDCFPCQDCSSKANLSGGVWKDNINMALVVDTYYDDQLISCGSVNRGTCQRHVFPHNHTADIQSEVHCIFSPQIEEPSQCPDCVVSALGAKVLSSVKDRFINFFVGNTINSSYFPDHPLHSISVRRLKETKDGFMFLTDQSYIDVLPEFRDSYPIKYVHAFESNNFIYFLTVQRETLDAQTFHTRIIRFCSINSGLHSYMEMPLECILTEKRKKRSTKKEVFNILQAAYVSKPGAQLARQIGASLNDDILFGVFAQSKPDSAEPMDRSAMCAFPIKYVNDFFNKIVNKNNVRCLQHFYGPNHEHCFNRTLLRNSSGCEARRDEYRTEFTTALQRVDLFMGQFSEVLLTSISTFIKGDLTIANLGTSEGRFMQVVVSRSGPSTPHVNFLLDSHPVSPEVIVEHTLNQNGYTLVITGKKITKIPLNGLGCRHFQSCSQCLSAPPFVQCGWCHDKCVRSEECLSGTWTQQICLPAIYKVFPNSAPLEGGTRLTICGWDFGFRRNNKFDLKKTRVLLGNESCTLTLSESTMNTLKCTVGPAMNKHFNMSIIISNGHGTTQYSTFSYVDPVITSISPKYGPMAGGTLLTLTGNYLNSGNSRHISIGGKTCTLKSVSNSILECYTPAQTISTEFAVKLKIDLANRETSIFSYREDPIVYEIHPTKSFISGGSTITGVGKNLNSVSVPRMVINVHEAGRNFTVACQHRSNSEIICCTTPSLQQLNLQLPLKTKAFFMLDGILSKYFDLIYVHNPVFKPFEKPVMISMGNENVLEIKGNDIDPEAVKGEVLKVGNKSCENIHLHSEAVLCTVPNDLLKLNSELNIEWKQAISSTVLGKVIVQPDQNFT

Sequence of cMet-Fc (HGFR ectodomain fused to human IgG1 Fc) (human) (P08581 25-932): as above

Row | Molecule | IC50 [1] [nM] | IC50 [2] [nM]
1 | UUUUTGGATGGTAGCTCGGTCGGGGTGGGTGGGTTGGCAAGTCT [trCLN3-L4] | 43 | –
2 | TGGATGGTAGCTCGGTCGGGGTGGGTGGGTTGGCAAGTCT (structured_DNA) [trCLN3] | – | 56

From PMC5803212, “Supramolecular aptamer nano-constructs for receptor-mediated targeting and light-triggered release of chemotherapeutics into cancer cells”
